According to patent publication US12018068B2, “Anti-O1 antibodies and uses thereof” (priority 2016, dated 2024):

Experiments:
O1 LPS = experiment: Octet binding affinity to O1 LPS; design: species or system Klebsiella pneumoniae; conditions: average, from on-rate and off-rate, read-out: affinity constant (KD) to O1 LPS
Excerpt: In order to reduce potential sequence liabilities for antibody development including potential immunogenicity due to anti-drug antibodies, an unpaired Cysteine in the light chain CDR3 of KPE33 was exchanged with Threonine (T), and somatic mutations in the frameworks 1, 2, and 4 of KPE33 were replaced with germ line residues (as summarized in FIG. 5). CDRs were maintained as wildtype, except for the C107T substitution described above. The optimized KPE33 was named KPE33v2016. […] This platform provides a powerful tool to measure the rate of biomolecular complex formation and complex stability in a more biologically meaningful setting. Briefly, Protein A coated sensors were coated with 2 μg/mL O1 LPS for 10 minutes before being dipped into solution containing 0.2 μg/mL anti-O1 LPS mAbs in Kinetics buffer (ForteBio, dilute 10× to 1× with PBS). Changes in the number of molecules bound to the biosensor caused a shift in the interference pattern that was recorded in real time. […] The affinity constant (KD) of KPE33 and KPE33v2016 to O1 LPS was calculated based on the on-rate and off-rate from Octet sensorgram.
KPE33v2016 was further optimized, thereby creating two new variants—KPE33 H32+L2016(1EQ) and KPE33 H33+L2016(1EQ). Both of these variants contain a Methionine to Isoleucine mutation adjacent to CDRH1, a Tryptophan to Tyrosine mutation in CDRH2, an Aspartate to Glutamate mutation adjacent to CDRH2, Asparagine to Glutamine and Methionine to Leucine mutations in FRH3 and an Aspartate to Asparagine mutation in CDRH3. In addition, KPE33 H32+L2016(1EQ) had four FRH3 residues changed to the germ-line residues, whereas KPE33 H33+L2016(1EQ) only has three of the same FRH3 residues changed to the germ-line. Both of these variants contain the same light chain as KPE33v2016, but with a single Glutamate to Glutamine mutation in residue 1.

[1] = tested on: K. pneumoniae carbapenem-resistant (CRE) strain Kp1131115 (O1); experiment: acute lethal pneumonia model, survival; format: in vivo, Klebsiella pneumoniae; conditions: C57BL/6 mice, antibody one hour post bacterial challenge, vs human IgG1 control (R347)
Description: (§1) In an acute pneumonia model, C57BL/6 mice were inoculated intranasally with 1e4 to 1e8 CFU of the multi-drug resistant Klebsiella pneumoniae carbapenam resistant (CRE) clinical isolate strain KP1131115 (O1). Anti-K. pneumoniae monoclonal antibody KPE33 at 0.2, 1, and 5 mg/kg and human IgG1 control antibody at 5 mg/kg were given one hour post bacterial challenge (therapeutic dosing). Mouse survival was monitored daily until up to day 8.
as §1, with “Additionally, in an” for “In an”, “monoclonal antibodies […] and […]” for “monoclonal antibody KPE33”, “at 0.2” for “at 0.2, 1,”, “and 1” for “and 5”
KPE33 or KPE33-V-2016 were administered at a dose of 6 mg/kg 1 hour post bacterial infection with a Klebsiella pneumoniae carbapenam resistant strain.

| Molecule | Kd (O1 LPS) [nM] | survival, lethal pneumonia Kp1131115 [1] | survival, lethal pneumonia Kp1131115 ([1]; listed as KPE33-H32+L2016(EQ1)) |
| --- | --- | --- | --- |
| KPE33 H32+L2016(1EQ): further optimized variant of KPE33v2016, VH SEQ ID NO:61, VL SEQ ID NO:63 (antibody, V domains shown) VH: QVQLVESGGGLVQPGRSLRLSCAASGFIFDDYAIHWVRQAPGKGLEWVSGIAYKSGATNYAESVKGRFTISRDQSKNSLYLQMNSLRAEDTALYYCTRRRASGDNTFYYFDYWGQGTLVTVSS VL: QIVLTQSPATLSLSPGERATLSCRASQNVNTNLAWYQQKPGQAPRLLIYDASNRATGIPARFSGSGSGTDFTLTISSLEPEDFAVYYCQQTTNWRYTFGQGTKLEIK | 4.46 | dose dependently enhanced survival | protect mice from lethal bacterial challenge |
| KPE33 H33+L2016(1EQ): further optimized variant of KPE33v2016, VH SEQ ID NO:62, VL SEQ ID NO:63 (antibody, V domains shown) VH: QVQLVESGGGLVQPGRSLRLSCAASGFIFDDYAIHWVRQAPGKGLEWVSGIAYKSGATNYAESVKGRFTISRDQSKKSLYLQMNSLRAEDTALYYCTRRRASGDNTFYYFDYWGQGTLVTVSS VL: QIVLTQSPATLSLSPGERATLSCRASQNVNTNLAWYQQKPGQAPRLLIYDASNRATGIPARFSGSGSGTDFTLTISSLEPEDFAVYYCQQTTNWRYTFGQGTKLEIK | 5.01 | dose dependently enhanced survival |  |
